Reference: patent US20250264471

Molecular target: Biotin-Crosstide (Anaspec)

B1: Akt1-S473E-T308P (protein)
chain: HHHHHHMDFRSGSPSDNSGAEEMEVSLAKPKHRVTMNEFEYLKLLGKGTFGKVILVKEKATGRYYAMKILKKEVIVAKDEVAHTLTENRVLQNSRHPFLTALKYSFQTHDRLCFVMEYANGGELFFHLSRERVFSEDRARFYGAEIVSALDYLHSEKNVVYRDLKLENLMLDKDGHIKITDFGLCKEGIKDGATMKTFCGTPEYLAPEVLEDNDYGRAVDWWGLGVVMYEMMCGRLPFYNQDHEKLFELILMEEIRFPRTLGPEAKSLLSGLLKKDPKQRLGGGSEDAKEIMQHRFFAGIVWQHVYEKKLSPPFKPQVTSETDTRYFDEEFTAQMITITPPDQDDSMECVDSERRPHFPQFEYSASSTA
  KM (µM) (present results), peptide substrate: 9 µM
